Results published in patent US20150274845A1 (Hoffmann-La Roche, published 2015).

Key:
[1] = biological target: human Melanoma-associated Chondroitin Sulfate Proteoglycan (MCSP) (human, UniProt Q6UVK1 30-2322); test: cell-based or functional assay
[2] = biological target: human CD3 T-Cell Co-Receptor (CD3) (human, UniProt P07766 23-207); test: cell-based or functional assay
Chain of human CD3 T-Cell Co-Receptor (CD3) (P07766 23-207): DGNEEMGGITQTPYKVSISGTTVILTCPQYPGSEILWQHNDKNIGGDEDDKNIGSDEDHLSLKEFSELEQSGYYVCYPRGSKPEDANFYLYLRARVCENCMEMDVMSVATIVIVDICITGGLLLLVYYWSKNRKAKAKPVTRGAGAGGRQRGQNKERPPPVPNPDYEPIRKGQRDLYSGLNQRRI

Chain of human Melanoma-associated Chondroitin Sulfate Proteoglycan (MCSP) (Q6UVK1 30-2322): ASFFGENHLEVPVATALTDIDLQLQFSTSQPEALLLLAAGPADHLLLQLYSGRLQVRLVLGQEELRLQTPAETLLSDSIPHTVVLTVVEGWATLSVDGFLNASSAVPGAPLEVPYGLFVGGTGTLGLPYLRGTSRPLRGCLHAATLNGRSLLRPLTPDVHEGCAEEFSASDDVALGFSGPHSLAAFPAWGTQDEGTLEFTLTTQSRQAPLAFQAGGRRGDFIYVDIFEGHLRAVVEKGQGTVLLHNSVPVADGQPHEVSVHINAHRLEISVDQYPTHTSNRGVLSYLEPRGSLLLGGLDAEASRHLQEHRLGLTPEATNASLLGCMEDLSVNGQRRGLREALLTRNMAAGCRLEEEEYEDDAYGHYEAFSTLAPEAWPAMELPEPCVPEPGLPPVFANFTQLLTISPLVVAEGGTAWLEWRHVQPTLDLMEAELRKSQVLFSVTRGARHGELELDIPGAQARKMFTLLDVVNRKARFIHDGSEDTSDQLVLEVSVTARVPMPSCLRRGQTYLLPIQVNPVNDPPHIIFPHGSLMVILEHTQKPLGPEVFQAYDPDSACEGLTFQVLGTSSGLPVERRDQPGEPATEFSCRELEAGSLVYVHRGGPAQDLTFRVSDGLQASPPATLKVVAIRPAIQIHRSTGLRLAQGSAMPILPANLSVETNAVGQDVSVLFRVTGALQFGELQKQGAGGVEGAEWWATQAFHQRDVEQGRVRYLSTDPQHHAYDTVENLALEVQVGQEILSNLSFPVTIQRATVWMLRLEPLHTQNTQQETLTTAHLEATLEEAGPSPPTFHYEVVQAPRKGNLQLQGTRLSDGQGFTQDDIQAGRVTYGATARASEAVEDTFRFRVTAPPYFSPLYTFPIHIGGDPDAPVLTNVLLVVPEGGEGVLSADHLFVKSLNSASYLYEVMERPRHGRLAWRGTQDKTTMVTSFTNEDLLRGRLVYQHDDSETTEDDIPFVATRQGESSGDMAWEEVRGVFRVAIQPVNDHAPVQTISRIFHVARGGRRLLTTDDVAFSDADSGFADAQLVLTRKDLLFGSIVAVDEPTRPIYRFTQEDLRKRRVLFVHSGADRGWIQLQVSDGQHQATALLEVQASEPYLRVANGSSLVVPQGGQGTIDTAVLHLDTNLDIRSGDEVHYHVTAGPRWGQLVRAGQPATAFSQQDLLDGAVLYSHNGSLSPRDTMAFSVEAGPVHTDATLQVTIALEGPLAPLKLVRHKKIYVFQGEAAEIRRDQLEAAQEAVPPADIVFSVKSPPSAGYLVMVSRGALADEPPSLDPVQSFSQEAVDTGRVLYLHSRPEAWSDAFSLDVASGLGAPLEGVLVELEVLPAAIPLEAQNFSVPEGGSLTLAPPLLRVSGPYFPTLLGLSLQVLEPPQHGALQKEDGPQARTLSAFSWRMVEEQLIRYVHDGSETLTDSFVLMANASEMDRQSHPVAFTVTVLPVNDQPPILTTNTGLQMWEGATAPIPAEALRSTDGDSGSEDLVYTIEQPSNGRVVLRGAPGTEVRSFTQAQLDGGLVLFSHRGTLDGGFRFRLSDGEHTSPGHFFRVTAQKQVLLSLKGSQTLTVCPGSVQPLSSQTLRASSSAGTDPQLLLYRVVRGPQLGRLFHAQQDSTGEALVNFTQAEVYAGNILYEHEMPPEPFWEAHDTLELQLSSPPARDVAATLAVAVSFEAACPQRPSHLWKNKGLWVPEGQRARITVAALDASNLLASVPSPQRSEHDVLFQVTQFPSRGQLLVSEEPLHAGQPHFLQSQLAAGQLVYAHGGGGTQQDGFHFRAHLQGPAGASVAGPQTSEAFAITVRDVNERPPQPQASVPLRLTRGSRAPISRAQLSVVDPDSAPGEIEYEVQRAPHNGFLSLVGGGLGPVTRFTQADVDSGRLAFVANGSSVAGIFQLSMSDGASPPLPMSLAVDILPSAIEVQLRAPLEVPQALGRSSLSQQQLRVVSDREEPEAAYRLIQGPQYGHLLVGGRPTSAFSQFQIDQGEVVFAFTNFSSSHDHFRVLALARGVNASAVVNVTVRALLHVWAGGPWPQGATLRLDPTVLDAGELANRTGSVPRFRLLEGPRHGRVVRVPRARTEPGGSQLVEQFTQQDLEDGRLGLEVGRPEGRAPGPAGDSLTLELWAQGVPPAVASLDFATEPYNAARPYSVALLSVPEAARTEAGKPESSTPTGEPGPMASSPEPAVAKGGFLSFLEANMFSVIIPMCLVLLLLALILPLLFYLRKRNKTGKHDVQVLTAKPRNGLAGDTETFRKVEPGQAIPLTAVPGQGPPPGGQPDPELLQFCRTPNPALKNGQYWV

Row | Binder | EC50 of killing (LDH release) of MV-3 tumor cells, human PBMCs, E:T 10:1, 24 hours [1] | EC50 of killing (LDH release) of MV-3 tumor cells, human PBMCs, E:T 10:1, 24 hours [2]
1 | (scFv)2 (antiMCSP/anti huCD3e) (bispecific antibody) scFv: DIVLTQSPSSLSASLGDRVTISCSASQGIRNYLNWYQQRPDGTVKLLIYYTSSLHSGVPSRFSGSGSGTDYSLTISNLEPEDIATYYCQQYSKLPWTFGGGTKLEIKGGGGSGGGGSGGGGSEVQLQESGPGLVKPSQSLSLTCSVTGYSITSGYYWNWIRQFPGNKLEWMGYITYDGSNNYNPSLKNRISITRDTSKNQFFLKLNSVTTEDTATYYCADFDYWGQGTTLTVSSGGGGSEVQLVESGGGLVQPGGSLRLSCAASGYSFTGYTMNWVRQAPGKGLEWVALINPYKGVSTYNQKFKDRFTISVDKSKNTAYLQMNSLRAEDTAVYYCARSGYYGDSDWYFDVWGQGTLVTVSSVEGGSGGSGGSGGSGGVDDIQMTQSPSSLSASVGDRVTITCRASQDIRNYLNWYQQKPGKAPKLLIYYTSRLESGVPSRFSGSGSGTDYTLTISSLQPEDFATYYCQQGNTLPWTFGQGTKVEIKHHHHHH | 57 pM | 57 pM
2 | hu Fab (MCSP)-Crossfab (CD3) (bispecific antibody) chain 1: EVQLQESGPGLVKPSQSLSLTCSVTGYSITSGYYWNWIRQFPGNKLEWMGYITYDGSNNYNPSLKNRISITRDTSKNQFFLKLNSVTTEDTATYYCADFDYWGQGTTLTVSSASTKGPSVFPLAPSSKSTSGGTAALGCLVKDYFPEPVTVSWNSGALTSGVHTFPAVLQSSGLYSLSSVVTVPSSSLGTQTYICNVNHKPSNTKVDKKVEPKSCDGGGGSGGGGSDIQMTQSPSSLSASVGDRVTITCRASQDIRNYLNWYQQKPGKAPKLLIYYTSRLESGVPSRFSGSGSGTDYTLTISSLQPEDFATYYCQQGNTLPWTFGQGTKVEIKSSASTKGPSVFPLAPSSKSTSGGTAALGCLVKDYFPEPVTVSWNSGALTSGVHTFPAVLQSSGLYSLSSVVTVPSSSLGTQTYICNVNHKPSNTKVDKKVEPKSC light: DIVLTQSPSSLSASLGDRVTISCSASQGIRNYLNWYQQRPDGTVKLLIYYTSSLHSGVPSRFSGSGSGTDYSLTISNLEPEDIATYYCQQYSKLPWTFGGGTKLEIKRTVAAPSVFIFPPSDEQLKSGTASVVCLLNNFYPREAKVQWKVDNALQSGNSQESVTEQDSKDSTYSLSSTLTLSKADYEKHKVYACEVTHQGLSSPVTKSFNRGEC chain 2: EVQLVESGGGLVQPGGSLRLSCAASGYSFTGYTMNWVRQAPGKGLEWVALINPYKGVSTYNQKFKDRFTISVDKSKNTAYLQMNSLRAEDTAVYYCARSGYYGDSDWYFDVWGQGTLVTVSSASVAAPSVFIFPPSDEQLKSGTASVVCLLNNFYPREAKVQWKVDNALQSGNSQESVTEQDSKDSTYSLSSTLTLSKADYEKHKVYACEVTHQGLSSPVTKSFNRGEC | 25.4 pM | 25.4 pM
